Measurements published in patent US12540161B2, “Linkers” (BicycleTx Limited, priority 2020, dated 2026).

Legend:
in vivo [1] = details: male, CD-1, mouse, plasma, intravenous
Description: Male CD-1 mice were dosed with each Bicycle Conjugate formulated in 25 mM histidine HCl, 10% sucrose pH 7 via tail vein injection. Serial bleeding (about 80 μL blood/time point) was performed via submadibular or saphenous vein at each time point. All blood samples were immediately transferred into prechilled microcentrifuge tubes containing 2 μL K2-EDTA (0.5M) as anti-coagulant and placed on wet ice. Blood samples were immediately processed for plasma by centrifugation at approximately 4° C., 3000 g. The precipitant including internal standard (350 μL) was immediately added into the 35 μL plasma sample, mixed well and centrifuged at 3220 g, 4° C. for 15 minutes. The supernatant was transferred into pre-labeled polypropylene microcentrifuge tubes, and then quick-frozen over dry ice. The samples were stored at 70° C. or below as needed until analysis. Supernatant samples were mixed with 50 μL water, vortexed well and centrifuged at 3220 g, 4° C. for 15 minutes. A sample of the supernatant was injected for LC-MS/MS analysis using an Acquity UPLC with AB Sciex 6500+ Triple Quad MS in positive ion mode to determine the concentrations of Bicycle Conjugate and released payload. Plasma concentration versus time data were analyzed by non-compartmental approaches using the Phoenix WinNonlin 6.3 software program. C0, Cl, Vdss, T1/2, AUC(0-inf), MRT(0-last), MRT(0-inf) nd graphs of plasma concentration versus time profile were reported.

in vitro [2] = details: rat, plasma
in vitro [3] = details: human, plasma
in vitro [4] = details: human, plasma, pH 7.4
Description: (§1) Pooled frozen plasma was thawed in a water bath at 37° C. Plasma was centrifuged at 4000 rpm for 5 min and the clots were removed if any. The pH will be adjusted to 7.4±0.1 if required. 1 mM stock solution was prepared with DMSO. Propantheline (positive control) was prepared by making a 100 μM working solution by diluting 5 μL of the stock solution (10 mM) with 495 μL ultra pure water. 100 μM working solutions of test compounds were made up by diluting 10 μL of the stock solution (1 mM) with 90 μL DMSO. 98 μL of blank plasma was spiked with 2 μL of dosing solution (100 μM) to achieve 2 μM of the final concentration in duplicate and samples were incubated at 37° C. in a water bath. At each time point (0, 1, 2, 4, 6 and 24 hr), 400 μL of 200 ng/mL tolbutamide and labetalol in 100% MeOH was added and mixed thoroughly to precipitate proteins. Sample plates were centrifuged at 4,000 rpm for 15 min. An aliquot of supernatant (150 μL) was transferred from each well before submitting for LC-MS/MS analysis.
(§2) The appointed incubation time points are T0 (0 hr), Tn (n=0, 1, 2, 4, 6, 24 hr). The half-life (T½) was calculated from a log linear plot of concentration versus time.
(§3) When the % remaining value at the maximal incubation time, which was 24 hr in this study, was higher than 75%, it is considered to be within the acceptable experimental variation.

[5] = Plasma stability analysis, mouse plasma; details: plasma, BTCs
Description: Pooled frozen plasma was thawed in a water bath at 37° C. Plasma was centrifuged at 4000 rpm for 5 min and the clots were removed if any. The pH will be adjusted to 7.4±0.1 if required. 1 mM stock solution was prepared with DMSO. Propantheline (positive control) was prepared by making a 100 μM working solution by diluting 5 μL of the stock solution (10 mM) with 495 μL ultra pure water. 100 μM working solutions of test compounds were made up by diluting 10 μL of the stock solution (1 mM) with 90 μL DMSO. 98 μL of blank plasma was spiked with 2 μL of dosing solution (100 μM) to achieve 2 μM of the final concentration in duplicate and samples were incubated at 37° C. in a water bath. […] An aliquot of supernatant (150 μL) was transferred from each well before submitting for LC-MS/MS analysis.
The % remaining test compound after incubation in plasma was calculated using following equation: Remaining=100×(PAR at appointed incubation time/PAR at T0 time)
where PAR is the peak area ratio of analyte versus internal standard (IS).
The half-life (T½) was calculated from a log linear plot of concentration versus time.

[6] = rat
in vitro [7] = details: mouse, plasma
Cathepsin B = Cathepsin B (Homo sapiens, UniProt P07858); experiment: Cathepsin B (CatB) cleavage assay; type: biochemical; details: BTCs
Description: 15 μL of test compound solution (2 mM in DMSO) was added to the incubation plate in duplicate. 30 μL of Cathepsin B stock solution (16 μM) was pre-activated with 1500 μL activation buffer for 10 min at room temperature. The Cathepsin B solution was diluted in 13.17 mL water, then 735 μL activatived enzyme mixture was added to the incubation plate. The mixture was incubated at 37° C. in a waterbath. […] The samples were mixed and centrifuged at 4000 rpm for 20 min. 50 μL of supernatant was taken into a new plate containing 150 μL ultra-pure water and the samples mixed thoroughly before submitting to LC-MS/MS analysis.

in vivo [8] = details: rat, plasma
in vitro [9] = details: cynomolgus monkey, plasma
in vitro [10] = details: rat, plasma, pH 7.4
Description: as §1, §2, §3

CC[C@H](C)[C@@H]([C@@H](CC(=O)N1CCC[C@H]1[C@H](OC)[C@@H](C)C(=O)N[C@H](C)[C@@H](O)c1ccccc1)OC)N(C)C(=O)[C@@H](NC(=O)[C@H](C(C)C)N(C)C(=O)OCc1ccc(NC(=O)[C@H](CCCNC(N)=O)NC(=O)[C@@H](NC(=O)Cn2cc(CCC(=O)NCCC(=O)N(C)CC(=O)N(C)CC(=O)N(C)CC(=O)N(C)CC(=O)N(C)CC(=O)N(C)CC(=O)N(C)CC(=O)N(C)CC(=O)N(C)CC(=O)N(C)CC(=O)N[C@@H](C)C(=O)N[C@H]3CN(C)Cc4cc5cc(c4)CN(C)C[C@@H](C(N)=O)NC(=O)[C@H](C(C)(C)C)NC(=O)[C@H](CC(=O)O)NC(=O)[C@H](Cc4ccc(O)cc4)NC(=O)[C@H](Cc4ccccc4)NC(=O)[C@H](CC(=O)O)NC(=O)[C@H](CCC(=O)O)NC(=O)[C@H](CSC5)NC(=O)[C@@H](C)NC(=O)[C@H](Cc4cccc5ccccc45)NC(=O)[C@H](CCC(=O)O)NC(=O)[C@H](CC(N)=O)NC(=O)[C@@H](C)NC3=O)nn2)C(C)C)cc1)C(C)C [BCY7761, MMAE-PAB-(Cit-Val)-BCY3900, reference compound]
C0 (in vivo [1]): 24800 ng/mL | Vd (in vivo [1]): 0.04 L/kg | clearance (in vivo [1]): 1 mL/min/kg | half-life (in vivo [1]): 0.48 h | fraction unbound (in vitro [2]; PPB (% Unbound), rat (Table 9)): 0.11 | fraction unbound (in vitro [2]; Plasma protein binding (% Unbound) Rat): 0.106 | fraction unbound (in vitro [3]): 0.211 | half-life at 2 μM (in vitro [4]): > 57.8 h | half-life at 2 μM ([5]; pH 7.4, Mouse plasma t1/2 (EDTA), EDTA anticoagulant): 9.1 h | half-life at 2 μM ([5]; pH 7.4, Mouse plasma t1/2 (Herparin), heparin anticoagulant): 9.2 h | half-life at 2 μM ([5]; pH 7.4, Mouse plasma t1/2 expt 2 (EDTA), EDTA anticoagulant, experiment 2): 6.8 h | AUC ratio [6]: 0.00445 | fraction unbound (in vitro [7]): 0.173 | % Parent remaining after incubation with CatB, 0 h (Cathepsin B; 0 h): 100% | % Parent remaining after incubation with CatB, 1 h (Cathepsin B; 1 h): 33.687% | % Parent remaining after incubation with CatB, 2 h (Cathepsin B; 2 h): 15.1% | % Parent remaining after incubation with CatB, 4 h (Cathepsin B; 4 h): 4.93% | % Parent remaining after incubation with CatB, 6 h (Cathepsin B; 6 h): 1.01% | % Parent remaining after incubation with CatB, 24 h (Cathepsin B; 24 h): 0.462% | half-life at 40 μM (Cathepsin B; read-out: CatB t1/2 (converted)): 0.9 h | half-life (in vivo [8]): 0.49 h | fraction unbound (in vitro [9]): 0.187 | half-life at 2 μM (in vitro [10]): 56.8 h
